Results taken from patent US20160207974A1 (published 2016).

B1: PEP07986-negative linker-A500 (Compound 12) (other)
chain: MGSLAEAKEAANAELDSYGVSDFYKRLIDKAKTVEGVEALKDAILAALPTGGEGGEGGEGGEGGEGGEASVPIQKVQDDTKTLIKTIVTRINDISHTQSVSSKQKVTGLEFIPGLHPILTLSKMDQTLAVYQQILTSMPSRNVIQISNDLENLRDLLHVLAFSKSCHLPQASGLETLESLGGVLEASGYSTEVVALSRLQGSLQDMLQQLDLSPGC
notes: also called Cmpd 12; PEP07986-Negative-A500
B2: PEP07986-neutral linker-A500 (Compound 2) (other)
chain: MGSLAEAKEAANAELDSYGVSDFYKRLIDKAKTVEGVEALKDAILAALPTGGGGSGGGSGGGSGGGSASVPIQKVQDDTKTLIKTIVTRINDISHTQSVSSKQKVTGLEFIPGLHPILTLSKMDQTLAVYQQILTSMPSRNVIQISNDLENLRDLLHVLAFSKSCHLPQASGLETLESLGGVLEASGYSTEVVALSRLQGSLQDMLQQLDLSPGC
notes: also called Cmpd 2; PEP07986-Neutral-A500

Biological target: T1, monkey serum albumin (monkey)
T1 construct: also called Monkey SA
T1 sequence (Q28522 17-600): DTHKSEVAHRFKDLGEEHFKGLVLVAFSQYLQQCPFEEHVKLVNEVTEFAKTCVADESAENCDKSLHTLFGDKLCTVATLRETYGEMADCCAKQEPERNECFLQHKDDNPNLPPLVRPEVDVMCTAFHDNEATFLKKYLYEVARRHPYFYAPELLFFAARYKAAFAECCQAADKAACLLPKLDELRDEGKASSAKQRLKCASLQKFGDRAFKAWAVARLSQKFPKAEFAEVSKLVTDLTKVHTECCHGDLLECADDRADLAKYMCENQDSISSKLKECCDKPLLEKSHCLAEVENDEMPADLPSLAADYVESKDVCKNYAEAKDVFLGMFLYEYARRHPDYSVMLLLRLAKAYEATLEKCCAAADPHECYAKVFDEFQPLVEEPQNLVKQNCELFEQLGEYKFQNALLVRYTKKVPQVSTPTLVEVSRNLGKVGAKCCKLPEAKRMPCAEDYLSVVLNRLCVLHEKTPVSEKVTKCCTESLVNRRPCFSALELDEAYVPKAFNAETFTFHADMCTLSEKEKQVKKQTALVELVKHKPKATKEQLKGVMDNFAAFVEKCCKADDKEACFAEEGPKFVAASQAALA
Experiment: SPR (BioRad ProteOn XPR36), albumin amine-coupled to GLC chip, analyte from 5 nM in 3-fold dilutions, 25 C
Description: All studies were conducted on a BioRad ProteOn XPR36 system using a GLC sensor chip at 25 degrees C. For amine coupling the GLC chip was activated for 5 minutes using a 1:1 mixture of sulfo-NHS/EDC diluted 30-fold from the initial stock in water as shown below. Each albumin sample was diluted to 25 ug/ml in 10 mM Na Acetate pH 5.0 and injected for 5 minutes over separate sensor surfaces. Each surface was then blocked with 1 M ethanolamine pH 8.5. Each albumin was coupled at a density of 2000-5000 in resonance units.
The binding of an engineered polypeptide was tested using 5 nM as the highest concentration in a three-fold dilution series. The running buffer contained 10 mM HEPES pH 7.4, 150 mM NaCl, 3 mM EDTA and 0.005% tween-20. All samples were tested using a 3-fold dilution series. Each concentration series was tested in duplicate. The dissociation phase for the highest concentration […] was monitored for 3 hours.

Binder | Kd
B1 | 0.4 nM
B2 | 0.405 nM
